Results from FireProtDB.

Conditions: whole UniProt chain shown
[1] = Bacillus amyloliquefaciens, pH 5.8, Thermal, DSC, acetate 10 mM, reversible: yes
[2] = Bacillus amyloliquefaciens, pH 6.2, Thermal, DSC, PIPES 0.01 M, NaCl 0.05 M, reversible: yes(54%)
[3] = Bacillus amyloliquefaciens, pH 6.3, 25 °C, GdnSCN, CD, Sodium acetate 50 mM, reversible: yes
[4] = Bacillus amyloliquefaciens, pH 6.3, 25 °C, Thermal, Fluorescence, MES 50 mM, KCl, reversible: yes
[5] = Bacillus amyloliquefaciens, pH 6.3, 25 °C, Urea, CD, MES 50 mM, reversible: yes
[6] = Bacillus amyloliquefaciens, pH 6.3, 25 °C, Urea, Fluorescence, MES 19.3 mM, reversible: yes
[7] = Bacillus amyloliquefaciens, pH 6.3, 25 °C, Urea, Fluorescence, MES 50 mM, reversible: yes
[8] = Bacillus amyloliquefaciens, pH 6.3, Thermal, DSC, MES 50 mM, reversible: yes
[9] = Bacillus amyloliquefaciens, pH 8, 25 °C, Urea, CD, Tris-HCl 25 mM
[10] = Armoracia rusticana, pH 7.4, 21 °C, GdnHCl, CD, Sodium phosphate 20 mM, CaCl2 1 mM, reversible: yes
[11] = Armoracia rusticana, pH 7.4, 21 °C, GdnHCl, Fluorescence, Sodium phosphate 20 mM, CaCl2 1 mM, reversible: yes

B1: Ribonuclease wild type, P00648 (protein)
chain: MMKMEGIALKKRLSWISVCLLVLVSAAGMLFSTAAKTETSSHKAHTEAQVINTFDGVADYLQTYHKLPDNYITKSEAQALGWVASKGNLADVAPGKSIGGDIFSNREGKLPGKSGRTWREADINYTSGFRNSDRILYSSDWLIYKTTDHYQTFTKIR
Tm [1]: 54.3 °C
heat capacity change of unfolding [1]: 1.37 kcal/mol/K
unfolding enthalpy (calorimetric) [1]: 126 kcal/mol
unfolding enthalpy (van 't Hoff) [1]: 124 kcal/mol
unfolding free energy (Bacillus amyloliquefaciens, pH 6, 25 °C, Thermal, CD, MES 50 mM, reversible: yes): 10 kcal/mol
Tm [2]: 54.8 °C
unfolding enthalpy (calorimetric) [2]: 128 kcal/mol
denaturant m value [3]: 14.3 kcal/mol/M
denaturant midpoint (higher = more stable) [3]: 0.77 M
unfolding free energy [3]: 11 kcal/mol
unfolding free energy (Bacillus amyloliquefaciens, pH 6.3, 25 °C, Thermal, DSC, MES 50 mM, reversible: yes): 8.52 kcal/mol
heat capacity change of unfolding [4]: 1.88 kcal/mol/K
unfolding enthalpy (van 't Hoff) [4]: 84.5 kcal/mol
unfolding free energy [4]: 10.2 kcal/mol
unfolding free energy (Bacillus amyloliquefaciens, pH 6.3, 25 °C, Thermal, Fluorescence, MES 50 mM): 10.2 kcal/mol
denaturant m value [5]: 2.02 kcal/mol/M
denaturant midpoint (higher = more stable) [5]: 4.53 M
unfolding free energy [5]: 9.18 kcal/mol
denaturant midpoint (higher = more stable) [6]: 2.27 M
unfolding free energy [6]: 10.5 kcal/mol
denaturant m value [7]: 1.92 kcal/mol/M
denaturant midpoint (higher = more stable) [7]: 4.58 M
unfolding free energy [7]: 8.79 kcal/mol
unfolding free energy (Bacillus amyloliquefaciens, pH 6.3, 25 °C, Urea, Fluorescence, MES 1 M): 8.9 kcal/mol
Tm [8]: 51.5 °C
unfolding enthalpy (calorimetric) [8]: 127 kcal/mol
unfolding enthalpy (van 't Hoff) [8]: 126 kcal/mol
denaturant m value [9]: 1.84 kcal/mol/M
unfolding free energy [9]: 7.58 kcal/mol

B2: Peroxidase C2 wild type, P17179 (protein)
chain: MHSSSSLIKLGFLLLLLNVSLSHAQLSPSFYDKTCPQVFDIATNTIKTALRSDPRIAASILRLHFHDCFVNGCDASILLDNTTSFRTEKDAFGNARSARGFDVIDTMKAAVEKACPKTVSCADLLAIAAQKSVVLAGGPSWKVPSGRRDSLRGFMDLANDNLPGPSSTLQVLKDKFRNVGLDRPSDLVALSGGHTFGKNQCQFIMDRLYNFSNSGKPDPTLDKSYLSTLRKQCPRNGNLSVLVDFDLRTPTIFDNKYYVNLKENKGLIQSDQELFSSPDASDTIPLVRAYADGQGKFFDAFVEAMIRMGNLSPSTGKQGEIRLNCRVVNSKPKIMDVVDTNDFASSI
Tm (Armoracia rusticana, pH 7, Thermal, Fluorescence, Unknown, reversible: yes): 74 °C
denaturant m value [10]: 1.8 kcal/mol/M
unfolding free energy [10]: 1.82 kcal/mol
denaturant m value [11]: 0.3 kcal/mol/M
unfolding free energy [11]: 2.2 kcal/mol

B3: wild type, Q7M1T4 (protein)
chain: ASQTITVGPWGGPGGNGWDDGSYTGIRQIELSYKEAIGSFSVIYDLNGEPFSGPKHTSKLPYKNVKIELRFPDEFLESVSGYTAPFSALATPTPVVRSLTFKTNKGRTFGPYGDEEGTYFNLPIENGLIVGFKGRTGDLLDAIGVHMAL
Tm (Artocarpus integer, pH 7.4, Thermal, CD, phosphate buffered saline (PBS) 10 mM, NaCl 150 mM, reversible: no): 65.8 °C
Tm (Artocarpus integer, pH 7.4, Thermal, Fluorescence, phosphate buffered saline (PBS) 10 mM, NaCl 150 mM, reversible: no): 63.9 °C
